Test results from patent publication US20050272633A1 (YEDA RESEARCH AND DEVELOPMENT, published 2005).
Blank lines part the entries; values can stand above or below the binder they belong to.

Key:
[1] = biological target: T1, NIK624-947 (C-terminal domain of NIK) (human, UniProt Q99558 624-947); experiment: yeast two-hybrid, NIK624-947 as bait, 41 MDD as prey
T1 construct: GAL4 DNA-BD or AD fusion in the two-hybrid tests; expressed from pcdnNIK (co-IP) or pcS3MTdnNIK (reporter assay) in 293-T cells; also called C-terminus of NIK; NIK C-terminus
T1 sequence (Q99558 624-947 limits assumed): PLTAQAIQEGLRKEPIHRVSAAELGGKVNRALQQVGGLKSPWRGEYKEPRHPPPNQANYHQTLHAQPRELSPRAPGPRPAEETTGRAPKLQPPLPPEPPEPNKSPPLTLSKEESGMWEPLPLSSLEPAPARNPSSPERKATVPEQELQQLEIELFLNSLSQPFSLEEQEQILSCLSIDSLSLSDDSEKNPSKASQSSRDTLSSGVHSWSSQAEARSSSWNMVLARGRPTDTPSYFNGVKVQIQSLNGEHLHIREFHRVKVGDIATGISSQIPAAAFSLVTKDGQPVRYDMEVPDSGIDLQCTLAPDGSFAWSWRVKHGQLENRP
From the text: (§1) To define the domain of cγc responsible for binding NIK, deletion mutants of cγc have been created and their binding to NIK analysed (FIG. 1). The deletion mutants were created by sequentially introduction of stop codons in the cytoplasmic domain of cγc, in gaps of 10-20 amino acids. The DNA encoding the full-length cγc or its deletion mutants were introduced into the pGADT7 prey vector (Clontech) for testing their binding to NIK in the SFY526 heterologous yeast strain by the two hybrid assay. The SFY526 yeast strain is […] for TRP and Leu. pGBKT plasmids (bait vector) have the Trp1 wild type gene and pGAD has the wild type Leu2 gene. Thus, only doubly transfected yeast will grow on selective Leu Trp media. Functional GAL4 will be restored in doubly transfected yeast when the chimeric proteins fused to GAL4 domains interact, bringing the activation domain and DNA binding domain of GAL4 to close proximity. The level of LAC-Z expression is indicative of the strength of the protein-protein interaction. Lac-Z activity was assessed by the standard beta-gal/colony lift filter assay (Clontech, Yeast Protocol Handbook, Chapter VI).
(§2) The binding of 41 MDD polypeptide to full length NIK or C-terminus NIK was tested in both orientations (i.e. 41 MDD as the pray and NIK as the bait and vice versa). […]

[2] = biological target: T2, NF-κB-inducing kinase, NIK (MAP3K14), full length (human, UniProt Q99558 1-947); experiment: yeast two-hybrid, NIK as bait, 41 MDD as prey
T2 construct: range 1-947; also called full length NIK; endogenous NIK
T2 sequence (Q99558 whole entry): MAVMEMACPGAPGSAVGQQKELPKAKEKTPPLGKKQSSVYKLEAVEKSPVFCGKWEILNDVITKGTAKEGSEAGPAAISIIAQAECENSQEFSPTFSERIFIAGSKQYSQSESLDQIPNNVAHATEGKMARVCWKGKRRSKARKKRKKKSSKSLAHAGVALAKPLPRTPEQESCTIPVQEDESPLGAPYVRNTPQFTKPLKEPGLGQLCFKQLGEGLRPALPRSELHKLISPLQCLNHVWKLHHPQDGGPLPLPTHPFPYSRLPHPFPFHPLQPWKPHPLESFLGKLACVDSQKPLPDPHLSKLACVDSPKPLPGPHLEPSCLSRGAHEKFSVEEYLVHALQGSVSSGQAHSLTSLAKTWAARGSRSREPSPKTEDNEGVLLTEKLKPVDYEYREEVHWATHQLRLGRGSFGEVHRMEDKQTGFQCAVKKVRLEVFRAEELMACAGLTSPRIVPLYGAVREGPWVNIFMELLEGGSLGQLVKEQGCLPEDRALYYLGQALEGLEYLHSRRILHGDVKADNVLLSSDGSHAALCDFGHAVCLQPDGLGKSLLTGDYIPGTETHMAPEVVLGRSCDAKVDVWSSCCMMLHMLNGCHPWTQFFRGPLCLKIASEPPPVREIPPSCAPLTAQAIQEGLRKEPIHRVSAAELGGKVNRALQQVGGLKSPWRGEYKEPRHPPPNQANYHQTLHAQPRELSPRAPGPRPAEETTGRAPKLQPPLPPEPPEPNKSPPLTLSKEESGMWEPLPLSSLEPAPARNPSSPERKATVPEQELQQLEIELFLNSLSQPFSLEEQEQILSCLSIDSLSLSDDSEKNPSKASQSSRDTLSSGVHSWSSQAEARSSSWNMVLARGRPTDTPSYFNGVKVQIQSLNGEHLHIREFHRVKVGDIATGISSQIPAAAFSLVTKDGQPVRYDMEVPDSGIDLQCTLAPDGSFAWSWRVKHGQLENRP
From the text: as §1, §2

[3] = biological target: T2, NF-κB-inducing kinase, NIK (MAP3K14), …; experiment: yeast two-hybrid

binding result [1]: binds
binding result [2]: binds
B1: cγc 329-369 (41 MDD polypeptide) (peptide)
chain: LCLVSEIPPKGGALGEGPGASPCNQHSPYWAPPCYTLKPET
notes: GAL4 fusion (bait or prey) in two-hybrid; also called 41 amino acid polypeptide from the membrane distal domain of cγc

binding result [3]: binds
B2: 44MPD (cγc membrane proximal domain, residues 282-325) (peptide)
chain: WLERTMPRIPTLKNLEDLVTEYHGNFSAWSGVSKGLAESLQPDY
notes: Two-hybrid constructs comprising intracellular fragments close to the membrane proximal domain
